# T1: PUF4 RNA-binding domain (Saccharomyces cerevisiae, UniProt P25339 537-888)
# T1 sequence: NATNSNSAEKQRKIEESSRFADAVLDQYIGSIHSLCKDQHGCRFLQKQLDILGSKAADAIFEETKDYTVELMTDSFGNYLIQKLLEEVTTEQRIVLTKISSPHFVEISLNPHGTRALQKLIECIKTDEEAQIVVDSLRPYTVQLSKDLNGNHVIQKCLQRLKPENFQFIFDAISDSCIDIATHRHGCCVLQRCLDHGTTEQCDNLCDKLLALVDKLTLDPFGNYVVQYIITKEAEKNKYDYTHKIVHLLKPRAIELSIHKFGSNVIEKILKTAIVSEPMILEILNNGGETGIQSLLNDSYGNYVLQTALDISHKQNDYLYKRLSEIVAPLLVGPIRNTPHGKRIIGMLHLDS
# Molecular target: T1, PUF4 RNA-binding domain
# Assay: Mg; RNA-MaP; 20 mM Na-HEPES pH 7.4, 30 mM KOAc, 0.75 mM MgCl2, 0.1% Tween-20, 5% glycerol, 0.1 mg/mL BSA, 2 mM DTT; 25 C; 0.0125-409.6 nM protein
# Conditions: tags: N-His6-TEV cleaved; C-SNAP kept, Cy3B-labelled; label: tethered on chip by stalled RNA polymerase
row,Binder,Kd [nM]
1,UCUCUUCAUGUAUAUAAUUCUCUU (ssRNA) [Id_ii_S1_P3E.2_K3.1_C3.2_[T-1A]_H3.1_A3.1_F3.1_T3.2_[T9A]_[A10T]],11.6
2,UCUCUUCUUGUAUAUACCUCUCUU (ssRNA) [Id_ii_S1_P3E.2_K3.1_C3.2_H3.1_A3.1_F3.1_T3.2_[T9C]_[A10C]],7.41
3,UCUCUUCAUGUAUAUAACUCUCUU (ssRNA) [Id_ii_S1_P3E.2_K3.1_C3.2_[T-1A]_H3.1_A3.1_F3.1_T3.2_[T9A]_[A10C]],16.9
4,UCUCUUUGUAUAUAUAACUCUCUU (ssRNA) [Id_ii_S1_P3E.3_K3.2_C3.2_[C-2T]_[T-1G]_H3.2_A3.1_F3.1_T3.2_[T9A]_[A10C]],4.91
5,UCUCUUGAUAUAUAUAGCUCUCUU (ssRNA) [Id_ii_S1_P3E.3_K3.2_C3.2_[C-2G]_[T-1A]_H3.2_A3.1_F3.1_T3.2_[T9G]_[A10C]],500
6,UCUCUUGCUAUAUAUAUGUCUCUU (ssRNA) [Id_ii_S1_P3E.3_K3.2_C3.2_[C-2G]_[T-1C]_H3.2_A3.1_F3.1_T3.2_[A10G]],754
7,UCUCUUGUUAUAUAUACGUCUCUU (ssRNA) [Id_ii_S1_P3E.3_K3.2_C3.2_[C-2G]_H3.2_A3.1_F3.1_T3.2_[T9C]_[A10G]],55.2
8,UCUCUUCUUGUAUAUAACUCUCUU (ssRNA) [Id_ii_S1_P3E.2_K3.1_C3.2_H3.1_A3.1_F3.1_T3.2_[T9A]_[A10C]],8.53
9,UCUCUUCUUGUAUAUAUCUCUCUU (ssRNA) [Id_ii_S1_P3E.2_K3.1_C3.2_H3.1_A3.1_F3.1_T3.2_[A10C]],6.72
10,UCUCUUGGUAUAUAUAACUCUCUU (ssRNA) [Id_ii_S1_P3E.3_K3.2_C3.2_[C-2G]_[T-1G]_H3.2_A3.1_F3.1_T3.2_[T9A]_[A10C]],782
11,UCUCUUGUUAUAUAUAAUUCUCUU (ssRNA) [Id_ii_S1_P3E.3_K3.2_C3.2_[C-2G]_H3.2_A3.1_F3.1_T3.2_[T9A]_[A10T]],44.6
12,UCUCUUGCUAUAUAUAUCUCUCUU (ssRNA) [Id_ii_S1_P3E.3_K3.2_C3.2_[C-2G]_[T-1C]_H3.2_A3.1_F3.1_T3.2_[A10C]],545
13,UCUCUUUGUAUAUAUAGUUCUCUU (ssRNA) [Id_ii_S1_P3E.3_K3.2_C3.2_[C-2T]_[T-1G]_H3.2_A3.1_F3.1_T3.2_[T9G]_[A10T]],2.33
14,UCUCUUCAUGUAUAUAAGUCUCUU (ssRNA) [Id_ii_S1_P3E.2_K3.1_C3.2_[T-1A]_H3.1_A3.1_F3.1_T3.2_[T9A]_[A10G]],6.69
15,UCUCUUUCUAUAUAUACAUCUCUU (ssRNA) [Id_ii_S1_P3E.3_K3.2_C3.2_[C-2T]_[T-1C]_H3.2_A3.1_F3.1_T3.2_[T9C]],1030
16,UCUCUUUGUAUAUAUAGCUCUCUU (ssRNA) [Id_ii_S1_P3E.3_K3.2_C3.2_[C-2T]_[T-1G]_H3.2_A3.1_F3.1_T3.2_[T9G]_[A10C]],3.66
17,UCUCUUGAUAUAUAUACCUCUCUU (ssRNA) [Id_ii_S1_P3E.3_K3.2_C3.2_[C-2G]_[T-1A]_H3.2_A3.1_F3.1_T3.2_[T9C]_[A10C]],1310
18,UCUCUUUCUAUAUAUAGCUCUCUU (ssRNA) [Id_ii_S1_P3E.3_K3.2_C3.2_[C-2T]_[T-1C]_H3.2_A3.1_F3.1_T3.2_[T9G]_[A10C]],620
19,UCUCUUCGUAUGUUAUCUCUU (ssRNA) [Ib_S1_P4E.1_K4.1_C4.1_H4.1_[T1C]_A4.1_[A6G]_F4.1_T4.1],> 2300
20,UCUCUUUGUAUAUAUAAUUCUCUU (ssRNA) [Id_ii_S1_P3E.3_K3.2_C3.2_[C-2T]_[T-1G]_H3.2_A3.1_F3.1_T3.2_[T9A]_[A10T]],8.44
21,UCUCUUCUUGUAUAUAAAUCUCUU (ssRNA) [Id_ii_S1_P3E.2_K3.1_C3.2_H3.1_A3.1_F3.1_T3.2_[T9A]],8.21

row,Binder,Kd [nM]
1,UCUCUUGGUAUAUAUAGUUCUCUU (ssRNA) [Id_ii_S1_P3E.3_K3.2_C3.2_[C-2G]_[T-1G]_H3.2_A3.1_F3.1_T3.2_[T9G]_[A10T]],124
2,UCUCUUAGUAAAUUAUCUCUU (ssRNA) [Ib_S1_P4E.1_K4.1_C4.1_H4.1_[T1A]_A4.1_[T5A]_F4.1_T4.1],491
3,UCUCUUGUUAUAUAUACCUCUCUU (ssRNA) [Id_ii_S1_P3E.3_K3.2_C3.2_[C-2G]_H3.2_A3.1_F3.1_T3.2_[T9C]_[A10C]],35.9
4,UCUCUUUCUAUAUAUACCUCUCUU (ssRNA) [Id_ii_S1_P3E.3_K3.2_C3.2_[C-2T]_[T-1C]_H3.2_A3.1_F3.1_T3.2_[T9C]_[A10C]],1390
5,UCUCUUCAUGUAUAUAGCUCUCUU (ssRNA) [Id_ii_S1_P3E.2_K3.1_C3.2_[T-1A]_H3.1_A3.1_F3.1_T3.2_[T9G]_[A10C]],5.33
6,UCUCUUUGUAUAUAUAUGUCUCUU (ssRNA) [Id_ii_S1_P3E.3_K3.2_C3.2_[C-2T]_[T-1G]_H3.2_A3.1_F3.1_T3.2_[A10G]],4.85
7,UCUCUUGUUAUAUAUAAAUCUCUU (ssRNA) [Id_ii_S1_P3E.3_K3.2_C3.2_[C-2G]_H3.2_A3.1_F3.1_T3.2_[T9A]],50
8,UCUCUUCUUGUAUAUAAUUCUCUU (ssRNA) [Id_ii_S1_P3E.2_K3.1_C3.2_H3.1_A3.1_F3.1_T3.2_[T9A]_[A10T]],8.3
9,UCUCUUGUUAUAUAUAGUUCUCUU (ssRNA) [Id_ii_S1_P3E.3_K3.2_C3.2_[C-2G]_H3.2_A3.1_F3.1_T3.2_[T9G]_[A10T]],12.1
10,UCUCUUCAUGUAUAUAAAUCUCUU (ssRNA) [Id_ii_S1_P3E.2_K3.1_C3.2_[T-1A]_H3.1_A3.1_F3.1_T3.2_[T9A]],13.1
11,UCUCUUGCUAUAUAUAACUCUCUU (ssRNA) [Id_ii_S1_P3E.3_K3.2_C3.2_[C-2G]_[T-1C]_H3.2_A3.1_F3.1_T3.2_[T9A]_[A10C]],1500
12,UCUCUUCAUGUAUAUAGUUCUCUU (ssRNA) [Id_ii_S1_P3E.2_K3.1_C3.2_[T-1A]_H3.1_A3.1_F3.1_T3.2_[T9G]_[A10T]],5.84
13,UCUCUUCUUGUAUAUAUUUCUCUU (ssRNA) [Id_ii_S1_P3E.2_K3.1_C3.2_H3.1_A3.1_F3.1_T3.2_[A10T]],5.12
14,UCUCUUGUUAUAUAUAUGUCUCUU (ssRNA) [Id_ii_S1_P3E.3_K3.2_C3.2_[C-2G]_H3.2_A3.1_F3.1_T3.2_[A10G]],46.3
15,UCUCUUGAUAUAUAUAAUUCUCUU (ssRNA) [Id_ii_S1_P3E.3_K3.2_C3.2_[C-2G]_[T-1A]_H3.2_A3.1_F3.1_T3.2_[T9A]_[A10T]],1040
16,UCUCUUCUUGUAUAUAGCUCUCUU (ssRNA) [Id_ii_S1_P3E.2_K3.1_C3.2_H3.1_A3.1_F3.1_T3.2_[T9G]_[A10C]],4.12
17,UCUCUUGCUAUAUAUACUUCUCUU (ssRNA) [Id_ii_S1_P3E.3_K3.2_C3.2_[C-2G]_[T-1C]_H3.2_A3.1_F3.1_T3.2_[T9C]_[A10T]],853
18,UCUCUUUGUAUAUAUAAGUCUCUU (ssRNA) [Id_ii_S1_P3E.3_K3.2_C3.2_[C-2T]_[T-1G]_H3.2_A3.1_F3.1_T3.2_[T9A]_[A10G]],8.25
19,UCUCUUGUUAUAUAUACUUCUCUU (ssRNA) [Id_ii_S1_P3E.3_K3.2_C3.2_[C-2G]_H3.2_A3.1_F3.1_T3.2_[T9C]_[A10T]],51.5
20,UCUCUUCGUAAAUUAUCUCUU (ssRNA) [Ib_S1_P4E.1_K4.1_C4.1_H4.1_[T1C]_A4.1_[T5A]_F4.1_T4.1],139
21,UCUCUUCAUGUAUAUAUCUCUCUU (ssRNA) [Id_ii_S1_P3E.2_K3.1_C3.2_[T-1A]_H3.1_A3.1_F3.1_T3.2_[A10C]],8.05

row,Binder,Kd [nM]
1,UCUCUUUGUAUAUAUACCUCUCUU (ssRNA) [Id_ii_S1_P3E.3_K3.2_C3.2_[C-2T]_[T-1G]_H3.2_A3.1_F3.1_T3.2_[T9C]_[A10C]],10
2,UCUCUUUCUAUAUAUAACUCUCUU (ssRNA) [Id_ii_S1_P3E.3_K3.2_C3.2_[C-2T]_[T-1C]_H3.2_A3.1_F3.1_T3.2_[T9A]_[A10C]],960
3,UCUCUUCGUACAUUAUCUCUU (ssRNA) [Ib_S1_P4E.1_K4.1_C4.1_H4.1_[T1C]_A4.1_[T5C]_F4.1_T4.1],16.8
4,UCUCUUCAUGUAUAUAUUUCUCUU (ssRNA) [Id_ii_S1_P3E.2_K3.1_C3.2_[T-1A]_H3.1_A3.1_F3.1_T3.2_[A10T]],8.07
5,UCUCUUCAUGUAUAUACUUCUCUU (ssRNA) [Id_ii_S1_P3E.2_K3.1_C3.2_[T-1A]_H3.1_A3.1_F3.1_T3.2_[T9C]_[A10T]],13.2
6,UCUCUUCAUGUAUAUACCUCUCUU (ssRNA) [Id_ii_S1_P3E.2_K3.1_C3.2_[T-1A]_H3.1_A3.1_F3.1_T3.2_[T9C]_[A10C]],17.7
7,UCUCUUUCUAUAUAUAAUUCUCUU (ssRNA) [Id_ii_S1_P3E.3_K3.2_C3.2_[C-2T]_[T-1C]_H3.2_A3.1_F3.1_T3.2_[T9A]_[A10T]],1010
8,UCUCUUGGUAUAUAUAAUUCUCUU (ssRNA) [Id_ii_S1_P3E.3_K3.2_C3.2_[C-2G]_[T-1G]_H3.2_A3.1_F3.1_T3.2_[T9A]_[A10T]],524
9,UCUCUUCUUGUAUAUAGUUCUCUU (ssRNA) [Id_ii_S1_P3E.2_K3.1_C3.2_H3.1_A3.1_F3.1_T3.2_[T9G]_[A10T]],3.72
10,UCUCUUUGUAUAUAUAUUUCUCUU (ssRNA) [Id_ii_S1_P3E.3_K3.2_C3.2_[C-2T]_[T-1G]_H3.2_A3.1_F3.1_T3.2_[A10T]],5
11,UCUCUUUCUAUAUAUAUGUCUCUU (ssRNA) [Id_ii_S1_P3E.3_K3.2_C3.2_[C-2T]_[T-1C]_H3.2_A3.1_F3.1_T3.2_[A10G]],1210
12,UCUCUUUGUAUAUAUAUCUCUCUU (ssRNA) [Id_ii_S1_P3E.3_K3.2_C3.2_[C-2T]_[T-1G]_H3.2_A3.1_F3.1_T3.2_[A10C]],3.36
13,UCUCUUCUUGUAUAUACUUCUCUU (ssRNA) [Id_ii_S1_P3E.2_K3.1_C3.2_H3.1_A3.1_F3.1_T3.2_[T9C]_[A10T]],7.04
14,UCUCUUCUUGUAUAUAUGUCUCUU (ssRNA) [Id_ii_S1_P3E.2_K3.1_C3.2_H3.1_A3.1_F3.1_T3.2_[A10G]],12.2
15,UCUCUUAGUACAUUAUCUCUU (ssRNA) [Ib_S1_P4E.1_K4.1_C4.1_H4.1_[T1A]_A4.1_[T5C]_F4.1_T4.1],39.1
16,UCUCUUCUUGUAUAUAUAUCUCUU (ssRNA) [Id_ii_S1_P3E.2_K3.1_C3.2_H3.1_A3.1_F3.1_T3.2],3.83
17,UCUCUUUCUAUAUAUAGUUCUCUU (ssRNA) [Id_ii_S1_P3E.3_K3.2_C3.2_[C-2T]_[T-1C]_H3.2_A3.1_F3.1_T3.2_[T9G]_[A10T]],771
18,UCUCUUUCUAUAUAUACGUCUCUU (ssRNA) [Id_ii_S1_P3E.3_K3.2_C3.2_[C-2T]_[T-1C]_H3.2_A3.1_F3.1_T3.2_[T9C]_[A10G]],1450
19,UCUCUUGUUAUAUAUAUAUCUCUU (ssRNA) [Id_ii_S1_P3E.3_K3.2_C3.2_[C-2G]_H3.2_A3.1_F3.1_T3.2],41.1
20,UCUCUUCUUGUAUAUACGUCUCUU (ssRNA) [Id_ii_S1_P3E.2_K3.1_C3.2_H3.1_A3.1_F3.1_T3.2_[T9C]_[A10G]],10.9
21,UCUCUUGUUAUAUAUAUCUCUCUU (ssRNA) [Id_ii_S1_P3E.3_K3.2_C3.2_[C-2G]_H3.2_A3.1_F3.1_T3.2_[A10C]],24.8
